The labels stand for the following.
B1: Regulatory protein rop, P03051 (parent)
chain: MTKQEKTALNMARFIRSQTLTLLEKLNELDADEQADICESLHDHADELYRSCLARFGDDGENL

This data set covers variants of B1. The settings on record: Escherichia coli, pH 6.3, CD, Phosphate 50 mM, NaCl 300 mM, structure 1ROP, whole UniProt chain shown; for Tm / change of melting temperature, mutant - wild type (higher = more stable) / heat capacity change of unfolding / unfolding enthalpy (van 't Hoff): Thermal.

This is an account of results in FireProtDB (doi:10.1002/pro.342).

As usually defined, the Tm is the temperature at which the thermal transition is half complete.

MTKQEKTALNMARFIRSQTLTLLEKLNELDADEQADIAESLHDHADELYRSVLARFGDDGENL: the Tm stood at 74 °C; the “change of melting temperature, mutant - wild type (higher = more stable)” value is 4 °C; the “heat capacity change of unfolding” value was 1.1 kcal/mol/K; the “unfolding enthalpy (van 't Hoff)” value amounted to 65 kcal/mol. Further, under “Urea”, the denaturant m value amounted to 1.3 kcal/mol/M, the “denaturant midpoint (higher = more stable)” value stood at 4.1 M and the unfolding free energy was determined as 11 kcal/mol.

With MTKQEKTALNMARFIRSQTLTLLEKLNELDADEQADIAESLHDHADELYRSALARFGDDGENL, the Tm is 56 °C; the “change of melting temperature, mutant - wild type (higher = more stable)” value was -14 °C; the “heat capacity change of unfolding” value came to 1.1 kcal/mol/K; the “unfolding enthalpy (van 't Hoff)” value was 65 kcal/mol. Further, for the setting “Urea”, the “ddG of mutation (higher = less stable)” value turned out to be 8.3 kcal/mol, the denaturant m value is 0.9 kcal/mol/M, the “denaturant midpoint (higher = more stable)” value is 2.3 M and the unfolding free energy came out at 7.7 kcal/mol.
